Paper PMC8792015, “The MuvB complex binds and stabilizes nucleosomes downstream of the transcription start site of cell-cycle dependent genes”

Target: MuvB complex (LIN9 94-542, LIN37, LIN52, LIN54 504-749, RBAP48) (Homo sapiens, UniProt Q5TKA1;Q96GY3;Q52LA3;Q6MZP7;Q09028 94-542;1-246;1-112;504-749;1-425)
Assay: fluorescence polarization; Kd value only in figure table; FP nucleosomes/601: 50 mM Tris pH 7.5, 150 mM NaCl, 1 mM DTT, 0.1% Tween-20, 20 nM probe (stated for peptide); FP TTK: 20 nM DNA, 20 mM Tris pH 8.0, 150 mM NaCl, 0.1% Tween-20; temperature not stated
Settings: protein: recombinant; tags: GST/Strep/His tags removed by TEV; copies: 1;1;1;1;1; label: fluorescein

B1: TTK promoter 40-bp fragment (dsDNA)
DNA 1: GTGATAGCGACGGGGAAATTCAAACGTGTTTGCGGAAAGG
DNA 2: CCTTTCCGCAAACACGTTTGAATTTCCCCGTCGCTATCAC
Q: Does B1 bind?
A: binds
